Assay results taken from patent publication US11939397B2, “ENTPD2 antibodies, combination therapies, and methods of using the antibodies and combination therapies” (Novartis AG, priority 2018, dated 2024).

Columns and labels:
B16F10 tumor = experiment: Syngeneic B16F10 tumor model, tumor growth and tumor T cell influx; assay type: in vivo, C57BL/6 mice
Experimental: B16F10 model was established in female C57BL/6 mice by subcutaneous injection of 0.5×10^6 cells into the right flank of each mouse. On day 7 once tumors reached approximately 30 mm^3, mice were randomized according to tumor volume into treatment groups (n=10 per group). Mice received treatment of either anti-mouse ENTPD2 mAb13 at a final dose 15 mg/kg, anti-PD-1 Ab (clone RMP1-14 Bio X Cell, West Lebanon, NH) i.p. at a final dose of 10 mg/kg or the combination of both treatments on days 1, 5, and 8. All doses were adjusted to individual mouse body weights.
In order to understand the impact of treatments on the tumor microenvironment, mice were euthanized on day 8 and tumors were dissociated in HyClone RPMI1640 media (GE Healthcare, Pittsburgh, PA) using gentleMacs C-tubes (Miltenyi Biotec, Auburn, CA) on the gentleMacs Octo Dissociator (Miltenyi Biotec, Auburn, CA). Approximately 2×10^6 dissociated tumor cells were blocked with rat anti-mouse CD16/CD32 Ab (Biolegend, San Diego, CA) to reduce non-specific FcyRIII/II binding and subsequently stained with the following cocktail of Abs: rat anti-mouse CD45-BUV395 (clone 30-F11) (BD Biosciences, San Jose, CA), rat anti-mouse CD8a-BUV737 (clone 53-6.7) (BD Biosciences, San Jose, CA), rat anti-mouse CD4-BV510 (clone RM4-5) (BD Bioscience, San Jose CA), anti-mouse CD69-PercPCy5.5 (clone H1-2F3) (Biolegend, San Diego, CA) and rat anti-mouse CD25-eFluor450 (clone eBio3C7) (eBioscience, San Diego, CA) at the manufacturers' recommended dilutions. All incubations and washes were performed in FACS Buffer composed of 1× HyClone Phosphate Buffered Saline (GE Healthcare, Pittsburgh, PA), 1% HyClone Fetal Bovine Serum (GE Healthcare, Pittsburgh, PA), 2 mM EDTA (ThermoFisher, Waltham MA). After staining with the cell surface antigen antibody cocktail, dissociated tumor cells were washed in FACS buffer, fixed and permeabilized using the eBioscience Foxp3/Transcription Factor Staining Buffer Kit (ThermoFisher, Waltham MA) to allow for intracellular staining with the mouse anti-mouse FOXP3-eFluor660 (clone 150D/E4) (eBioscience, San Diego, CA).

cyno ENTPD2 = experiment: FACS binding to cyno ENTPD2 expressing cells; set-up: species or system cynomolgus monkey
Experimental: FACS screening: Specific binding of candidate antibodies to endogenously expressed ENTPD2 was assessed by flow cytometry. Cells were rinsed thoroughly with 1×PBS and treated with Accutase (Millipore #SCR005) to lift from growth plates and resuspended at approximately 1×10^5 cells/90 μL in 1×FACS buffer (2% FBS+0.1% NaN3 in PBS). In a 96-well U-bottom plate, 10 μL of 10× antibody solution in FACS buffer was pre-seeded and 90 μL of cell suspension was added. Cell were incubated for 30 minutes at 4° C., washed 1× with cold PBS and resuspended in 100 μL of 1:500 secondary antibody 1×FACS buffer (Allophycocyanin conjugated F(ab′)2 goat anti-human IgG, Fcγ specific; Jackson Immunoresearch, Cat #109-136-098). After additional incubation for 15 min at 4° C., cells were washed twice with PBS and resuspended in 100 μL of 1×FACS buffer with 4 μg/mL propidium iodide (Life Technologies, Cat #P3566). Geometric mean fluorescence intensity was calculated on live single cells using FlowJo software.

ENTPD2 = target: T1, ENTPD2 (Homo sapiens, UniProt Q9Y5L3); experiment: FACS binding to human ENTPD2 expressing cells (NIH/3T3); set-up: expressed in transfected cells
T1 sequence (Q9Y5L3 1-495): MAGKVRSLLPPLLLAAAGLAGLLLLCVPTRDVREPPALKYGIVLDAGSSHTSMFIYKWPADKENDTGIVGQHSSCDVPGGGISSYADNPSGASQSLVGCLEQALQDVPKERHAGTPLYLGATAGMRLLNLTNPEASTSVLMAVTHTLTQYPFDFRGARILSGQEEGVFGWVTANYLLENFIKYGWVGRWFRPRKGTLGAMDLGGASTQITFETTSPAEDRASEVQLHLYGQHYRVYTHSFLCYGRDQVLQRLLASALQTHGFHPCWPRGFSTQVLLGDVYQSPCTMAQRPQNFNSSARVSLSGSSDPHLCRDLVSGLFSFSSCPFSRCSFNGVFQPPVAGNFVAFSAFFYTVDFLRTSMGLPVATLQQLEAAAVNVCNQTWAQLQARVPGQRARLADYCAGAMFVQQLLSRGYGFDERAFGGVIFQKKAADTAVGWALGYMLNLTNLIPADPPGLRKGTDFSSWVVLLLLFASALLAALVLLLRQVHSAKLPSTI
Source text: Ten days after fusion, hybridoma plates were screened for the presence of ENTPD2-specific antibodies using flow cytometry to confirm specific binding of candidate antibodies to cell surface-expressed human ENTPD2 using three cell lines: parental NIH/3T3 cells, NIH/3T3 cells stably overexpressing human ENTPD2, and RKO cells (ATCC®), which expresses endogenous human ENTPD2. Cells were rinsed thoroughly with PBS, treated with Accutase (Millipore #SCR005) to lift them from the growth plates, and resuspended in cold PBS. Cells were biotinylated and labeled with a fluorescent dye according to manufacturer's instructions (FluoReporter™ Cell-Surface Biotinylation Kit, Thermo Fisher Scientific Cat #F-20650; PE-Cy7 Steptavidin, ThermoFisher Scientific Cat #SA1012). Cells were resuspended at approximately 1×10^6 cells/ml in FACS buffer (PBS with 2% FBS+0.1% NaN3). In a 384-well plate, 20 μL of hybridoma supernatant was pre-seeded and 20 μL of cell suspension was added. […] Geometric mean fluorescence intensity was calculated on live single cells using FlowJo™ software.
FACS screening: Specific binding of candidate antibodies to endogenously expressed ENTPD2 was assessed by flow cytometry. […] Geometric mean fluorescence intensity was calculated on live single cells using FlowJo software.

[1] = mAb13 and anti-PD-1 Ab combination, day 8

Chain of cyno ENTPD2 (as listed by the source): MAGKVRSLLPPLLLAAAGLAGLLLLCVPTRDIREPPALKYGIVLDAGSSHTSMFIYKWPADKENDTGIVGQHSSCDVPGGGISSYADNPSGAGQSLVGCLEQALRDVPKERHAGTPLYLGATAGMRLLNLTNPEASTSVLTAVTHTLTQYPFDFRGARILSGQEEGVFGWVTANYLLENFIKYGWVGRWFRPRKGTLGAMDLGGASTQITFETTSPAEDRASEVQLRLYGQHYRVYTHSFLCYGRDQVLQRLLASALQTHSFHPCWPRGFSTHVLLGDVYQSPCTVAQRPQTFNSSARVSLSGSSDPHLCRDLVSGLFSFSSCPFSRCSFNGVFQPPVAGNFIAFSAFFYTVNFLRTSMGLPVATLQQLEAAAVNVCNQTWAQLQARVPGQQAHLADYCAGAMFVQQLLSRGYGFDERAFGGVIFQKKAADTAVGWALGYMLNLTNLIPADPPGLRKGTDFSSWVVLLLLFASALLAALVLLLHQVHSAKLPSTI

B1: mAb13: anti-mouse ENTPD2 monoclonal antibody, VH SEQ ID NO: 191, VL SEQ ID NO: 202 (antibody, V domains shown)
VH: QVQLVQSGAELKQPGQSVKISCKASGYTFTHYGMNWVKQAPGQGLKWMGWINTDTGNPTYADDFKGRFVFSLDTSVSTAYLQISNLKNEDTATYYCVRYGTLYSGYGFFFDSWGQGTLVTVSS
VL: DIMMTQSPSSLSVSAGEKATITCKSSQSLFNSNTNKNYLNWYLQKPGQSPKLLFYYASTRHTGVPDRFIGSGSGTDFTLTITSVQDEDLADYYCQQWYSYPWTFGPGTKLEIK
In the case of B1, the “tumor growth relative to No Treatment control, combination” value (B16F10 tumor; mAb13 15 mg/kg in combination with anti-PD-1 Ab 10 mg/kg, days 1, 5, 8) is reported as “significant reduction in tumor growth”, the “anti-tumor efficacy, treatment alone” value (B16F10 tumor; mAb13 15 mg/kg or anti-PD-1 Ab 10 mg/kg i.p. alone, days 1, 5, 8) is reported as “No significant anti-tumor efficacy” and the “activated CD4 T-helper cells (CD45+ CD8− CD4+ FOXP3− CD69+ CD25+) in tumor, increase vs No Treatment” value (B16F10 tumor; [1]) is reported as 7.0 fold. For the same molecule, the “activated CD8 T cells (CD45+ CD4− CD8+ CD69+ CD25+) in tumor, change vs No Treatment” value (B16F10 tumor; [1]) was 5.8 fold, the “binding to cyno ENTPD2” value (cyno ENTPD2) was “no binding” and the “binding to human ENTPD2” value (ENTPD2) was “no binding”.
